From US10357573B2, “Block copolymer conjugate of physiologically active substance” (Nippon Kayaku Kabushiki Kaisha, priority 2015, dated 2019)
Where two headings read alike, the source gives them in different places.

Key:
[1] = Maximum tolerated dose / maximum non-lethal dose, single intravenous administration; assay type: in vivo, mice; settings: iv once through the caudal vein; for maximum tolerated dose: as converted to cabazitaxel
human lung cancer H460 = test: Test Example C-4 antitumor effect test in human lung cancer-transplanted nude mouse; assay type: in vivo; settings: for antitumor effect: compared to cabazitaxel 30 mg/kg; for Relative tumor volume: iv once, 15th day after administration, day of administration = 1.0, average ± SD
Experimental: A tumor mass of human lung cancer H460 that had been subcutaneously subcultured in a nude mouse was cut into a block having a size of about 3 mm on each side, and this block was subcutaneously transplanted on the dorsal side of a nude mouse using a trocar.
(§1) A relative tumor volume was determined from the tumor volumes obtained on the day of administration and on the 15th day after the administration, and this was employed as an index for the antitumor effect. The tumor volume was determined by measuring the major axis (L: mm) and the minor axis (W: mm) of the tumor, and calculating the volume by the calculation formula: (L×W^2)/2.

[2] = tested on: human pancreatic cancer BxPC3; test: Test Example C-3 antitumor effect test in human pancreatic cancer-transplanted nude mouse; assay type: in vivo; settings: for antitumor effect: compared to cabazitaxel 30 mg/kg; for Relative tumor volume: iv once, 8th day after administration, day of administration = 1.0, average ± SD
Experimental: A tumor mass of human pancreatic cancer BxPC3 that had been subcutaneously subcultured in a nude mouse was cut into a block having a size of about 3 mm on each side, and this block was subcutaneously transplanted on the dorsal side of a nude mouse using a trocar.
as §1, with “8th” for “15th”

[3] = for Number of blood reticulocytes: 60 mg/kg as converted to cabazitaxel, iv once, 5th day after administration
Experimental: As a control group, a 5% glucose injection solution was intravenously administered once through the caudal vein.
Polysorbate 80 was added thereto in an amount equal to the amount of anhydrous ethanol, and the mixture was sufficiently mixed. This was used as a preparation stock solution.
After 3, 5, 7, 11, and 14 days from the day of administration of the various compounds, blood was collected through the subclavian vein without anesthesia using a 1-mL disposable syringe with a 26 G needle. About 3 μL of an EDTA-2K solution had been added in advance to the syringe, and this solution was sufficiently mixed with the blood thus collected. The resultant solutions were used as analysis samples. The blood samples were subjected to a blood cell analysis using a blood cell analysis apparatus XT-2000iV (Sysmex Corp.).

[4] = Test Example A-4 hematotoxicity test in non-tumor bearing rat; assay type: in vivo, Sprague-Dawley rats; settings: 40 mg/kg as converted to 7-ethyl-10-hydroxycamptothecin; for prolonged hematotoxicity: 7 days after administration; for Number of blood reticulocytes: iv once, 7th day after administration
From the text: The resultant solutions were used as analysis samples.

[5] = tested on: human stomach cancer SC-4-JCK; test: Test Example A-5 antitumor effect in human stomach cancer-transplanted nude mouse; assay type: in vivo; settings: 12 mg/kg as converted to 7-ethyl-10-hydroxycamptothecin, iv once; for Relative tumor volume: 14th day after administration, day of administration = 1.0, average ± SD
Experimental: A tumor mass of human stomach cancer SC-4-JCK that had been subcutaneously subcultured in a nude mouse was cut into a block having a size of about 3 mm on each side, and this block was subcutaneously transplanted on the dorsal side of a nude mouse using a trocar.
A relative tumor volume was determined from the tumor volumes obtained on the day of administration and on the 14th day after the administration, and this was employed as an index for the antitumor effect. The tumor volume was determined by measuring the major axis (L: mm) and the minor axis (W: mm) of the tumor, and calculating the volume by the calculation formula: (L×W^2)/2.

[6] = Light scattering intensity of 1 mg/mL aqueous solution, relative to toluene; assay type: physicochemical; settings: for relative ratio between the light scattering intensity and the light scattering intensity of toluene: 1 mg/mL aqueous solution vs standard toluene solution under the same conditions; for light scattering intensity of a 1 mg/mL aqueous solution: 1 mg/mL in ultrapure water, 25° C., wavelength 632.8 nm
Experimental: Regarding the measurement sample for the scattering intensity measurement, a solution obtained by adding ultrapure water to a physiologically active substance-conjugated block copolymer to obtain a concentration of 1 mg/mL, dissolving the block copolymer by irradiating the mixture with ultrasonic waves for 10 minutes under ice cooling, and then filtering the solution through a 0.2-μm membrane filter, was used.
Toluene (manufactured by Junsei Chemical Co., Ltd., special grade) that was used for the measurement of the light scattering intensity, was used after being filtered three times through a 0.2-μm membrane filter.

[7] = Test Example A-3 hepatotoxicity test in non-tumor bearing mouse; assay type: in vivo, Crl:CD1(ICR)(ICR(IGS)) mice; parameters: ALT: unit not given here; settings: for ALT: iv once, blood plasma 3 days after administration; for hepatotoxicity: maximum tolerated dose iv once, 3 days after administration
Experimental: The blood plasma obtained by centrifuging the blood thus collected (4° C., 1600×g, 10 minutes) was used as a measurement sample, and a blood chemical examination of the measurement sample was performed using an automatic biochemical analysis apparatus Model 7180 (Hitachi High Technologies Corp.).

[8] = Volume average particle diameter by dynamic light scattering; assay type: physicochemical; settings: device A, 1 mg/mL
Experimental: Measurement of the volume average particle diameters of the physiologically active substance-conjugated block copolymers of Examples and Comparative Examples was carried out using a ZetaPotential/Particlesizer NICOMP 380 ZLS (device A; temperature: 25° C.) manufactured by Particle Sizing Systems, LLC, or a particle size zeta potential analyzer, ZETASIZER NANO ZS (device B; measurement temperature: 25° C., analysis model: General Purpose (normal resolution), material RI: 1.59) manufactured by Malvern Instruments, Ltd. Regarding the volume average particle diameter measurement sample, a solution obtained by adding ultrapure water to a physiologically active substance-conjugated block copolymer to obtain a concentration of 1 mg/mL or 5 mg/mL, dissolving the block copolymer by irradiating the mixture with ultrasonic waves for 10 minutes under ice cooling, and then filtering the solution through a 0.2-μm membrane filter, was used.

[9] = 60 mg/kg as converted to cabazitaxel
[10] = dose 100 mg/kg as converted to 7-ethyl-10-hydroxycamptothecin (maximum tolerated dose)

Molecule: Cabazitaxel (CBZ) and n-butylamine Conjugate of polyethylene glycol (2 Kilodaltons)-α,β-polyaspartic Acid (12.5 Polymer) Block Copolymer [Example C-1]
- maximum tolerated dose [1]: 60 mg/kg
- antitumor effect (human lung cancer H460; [9]): stronger tumor proliferation suppressing action
- Relative tumor volume (human lung cancer H460; [9]): 0.560 ± 0.201
- antitumor effect [2, 9]: stronger tumor proliferation suppressing action
- Relative tumor volume [2, 9]: 0.83 ± 0.10
- Number of blood reticulocytes [3]: 52.69 ± 13.95 ×10^4/μL
- prolonged hematotoxicity ([3]; 5 days after administration): prolonged hematotoxicity was not recognized

Molecule: 7-ethyl-10-hydroxycamptothecin (EHC) Conjugate of polyethylene glycol (2 Kilodaltons)-polyglutamic Acid (7.6 Polymer) Block Copolymer [Example A-1]
- prolonged hematotoxicity [4]: prolonged hematotoxicity was not recognized
- Number of blood reticulocytes [4]: 64.18 ± 4.43 ×10^4/μL
- Relative tumor volume [5]: 2.466 ± 0.398
- relative ratio between the light scattering intensity and the light scattering intensity of toluene [6]: 3.1 times
- light scattering intensity of a 1 mg/mL aqueous solution [6]: 17,070 cps
- ALT [7, 10]: 64 ± 25
- hepatotoxicity [7]: hepatotoxicity was negligible
- volume average particle diameter [8]: 6 nm

Molecule: Cabazitaxel (CBZ) Conjugate of polyethylene glycol (12 Kilodaltons)-α,β-polyaspartic Acid (23.8 Polymer) Block Copolymer [Comparative Example C-1, reference compound]
- maximum tolerated dose [1]: 60 mg/kg
- antitumor effect (human lung cancer H460; [9]): stronger tumor proliferation suppressing action
- Relative tumor volume (human lung cancer H460; [9]): 0.484 ± 0.083
- antitumor effect [2, 9]: stronger tumor proliferation suppressing action
- Relative tumor volume [2, 9]: 0.78 ± 0.09
- Number of blood reticulocytes [3]: 18.49 ± 13.10 ×10^4/μL
- prolonged hematotoxicity ([3]; 5 days after administration): prolonged hematotoxicity was recognized

Molecule: CO[C@H]1C(=O)[C@]2(C)[C@@H](OC)C[C@H]3OC[C@@]3(OC(C)=O)[C@H]2[C@H](OC(=O)c2ccccc2)[C@]2(O)C[C@H](OC(=O)[C@H](O)[C@@H](NC(=O)OC(C)(C)C)c3ccccc3)C(C)=C1C2(C)C [Cabazitaxel, reference compound]
- maximum non-lethal dose [1]: 30 mg/kg
- Relative tumor volume (human lung cancer H460; 30 mg/kg): 1.476 ± 0.509
- Relative tumor volume ([2]; 30 mg/kg): 1.19 ± 0.21
- prolonged hematotoxicity ([3]; mouse, in vivo): prolonged hematotoxicity was not recognized

Molecule: 7-ethyl-10-hydroxycamptothecin (EHC) Conjugate of polyethylene glycol (12 Kilodaltons)-polyglutamic Acid (7.5 Polymer) Block Copolymer [Comparative Example A-3]
- relative ratio between the light scattering intensity and the light scattering intensity of toluene [6]: 1.0 times
- light scattering intensity of a 1 mg/mL aqueous solution [6]: 5,625 cps
- self-association in aqueous solution [6]: non-associating
- ALT ([7]; dose 50 mg/kg as converted to 7-ethyl-10-hydroxycamptothecin (maximum tolerated dose)): 114 ± 68
- hepatotoxicity [7]: hepatotoxicity was clearly manifested

Molecule: Cabazitaxel (CBZ) Conjugate of polyethylene glycol (5 Kilodaltons)-α-polyaspartic Acid (20.0 Polymer) Block Copolymer [Example C-2]
- maximum tolerated dose [1]: 60 mg/kg
- antitumor effect (human lung cancer H460; [9]): stronger tumor proliferation suppressing action
- Relative tumor volume (human lung cancer H460; [9]): 0.800 ± 0.371
- antitumor effect [2, 9]: stronger tumor proliferation suppressing action
- Relative tumor volume [2, 9]: 0.81 ± 0.17

Molecule: 7-ethyl-10-hydroxycamptothecin (EHC) Conjugate of polyethylene glycol (2 Kilodaltons)-polyglutamic Acid (10.0 Polymer) Block Copolymer [Example A-2]
- Relative tumor volume [5]: 2.593 ± 0.482
- relative ratio between the light scattering intensity and the light scattering intensity of toluene [6]: 4.9 times
- light scattering intensity of a 1 mg/mL aqueous solution [6]: 27,149 cps
- ALT [7, 10]: 55 ± 54
- hepatotoxicity [7]: hepatotoxicity was negligible
- volume average particle diameter [8]: 10 nm

Molecule: 7-ethyl-10-hydroxycamptothecin (EHC) Conjugate of polyethylene glycol (12 Kilodaltons)-polyglutamic Acid (25 Polymer) Block Copolymer [Comparative Example A-1, reference compound]
- prolonged hematotoxicity [4]: prolonged hematotoxicity was recognized
- Number of blood reticulocytes [4]: 20.26 ± 11.50 ×10^4/μL
- Relative tumor volume [5]: 2.232 ± 0.534
- relative ratio between the light scattering intensity and the light scattering intensity of toluene [6]: 7.5 times
- light scattering intensity of a 1 mg/mL aqueous solution [6]: 41,321 cps
- volume average particle diameter [8]: 20 nm

Molecule: 7-ethyl-10-hydroxycamptothecin (EHC) Conjugate of polyethylene glycol (3 Kilodaltons)-polyglutamic Acid (6.6 Polymer) Block Copolymer [Comparative Example A-2, reference compound]
- Number of blood reticulocytes [4]: 66.17 ± 7.74 ×10^4/μL
- Relative tumor volume [5]: 2.426 ± 1.122
- relative ratio between the light scattering intensity and the light scattering intensity of toluene [6]: 1.80 times
- light scattering intensity of a 1 mg/mL aqueous solution [6]: 9,964 cps
- self-association in aqueous solution [6]: non-associating
- ALT [7, 10]: 528 ± 681
- hepatotoxicity [7]: occurrence of hepatotoxicity was acknowledged

Molecule: 7-ethyl-10-Hydroxycamptothecin (EHC) Conjugate of polyethylene glycol (5 Kilodaltons)-polyglutamic Acid (10.0 Polymer) Block Copolymer [Example A-3]
- prolonged hematotoxicity [4]: prolonged hematotoxicity was not recognized
- Number of blood reticulocytes [4]: 54.29 ± 8.49 ×10^4/μL
- antitumor effect [5]: stronger antitumor effect compared to the Comparative Examples
- Relative tumor volume [5]: 1.574 ± 0.388
- relative ratio between the light scattering intensity and the light scattering intensity of toluene [6]: 3.0 times
- light scattering intensity of a 1 mg/mL aqueous solution [6]: 16,750 cps
- volume average particle diameter [8]: 8 nm
